This is an account of results in article PMC3685215.

The assay addresses recombinant type 1 inositol 1,4,5-trisphosphate receptor, N-terminally tagged with ECFP (rat) (UniProt P29994). Kind of assay: SEC; Calibrated Superose 6 10/300 GL gel filtration, the final purification step; 50 mM Tris/HCl, 150 mM NaCl, 1 mM EDTA, 1 mM dithiothreitol, 5% glycerol, 0.02% DDM, pH 8.3; 4 °C; oligomeric size of the purified receptor. For orientation: In gel filtration, larger molecules generally elute earlier.

In general, stoichiometry N refers to the number of molecules, sites or subunits per partner or assembly. Consider “recombinant type 1 inositol 1,4,5-trisphosphate receptor, N-terminally tagged with ECFP (from UniProt P29994 1-2750)”, for which the stoichiometry N came out at 4.
